These results are taken from patent publication US20070172423A1, “Composition and method for modulating vasculogenesis for angiogenesis” (priority 1998, published 2007).

One data set concerns the target T1, human VEGFR-2 (Homo sapiens, UniProt P35968).
T1 construct: soluble Ig-fusion proteins containing the extracellular domains of human VEGFR-1, VEGFR-2 and VEGFR-3; made in house; host or cells: human 293 EBNA cells, transient expression
Kind of data set: Binding to soluble VEGFR-2-Ig fusion protein. The settings on record: 35S-labeled protein in conditioned medium from 293 cells, precipitation with Ig-fusion protein. The method, then: To assess the interactions between full length and truncated PDGF-C and the VEGF receptors, full length and truncated PDGF-C were tested for their capacity to bind to soluble Ig-fusion proteins containing the extracellular domains of human VEGFR-1, VEGFR-2 and VEGFR-3 (Olofsson et al., Proc. Natl. Acad. Sci. USA, 1998 95:11709-11714). The fusion proteins, designated VEGFR-1-Ig, VEGFR-2-Ig and VEGFR-3-Ig, were transiently expressed in human 293 EBNA cells. All Ig fusion proteins were human VEGFRs. Cells were incubated for 24 hours after transfection, washed with Dulbecco's Modified Eagle Medium (DMEM) containing 0.2% bovine serum albumin and starved for 24 hours. The fusion proteins were then precipitated from the clarified conditioned medium using protein A-Sepharose beads (Pharmacia). The beads were combined with 100 microliters of 10× binding buffer (5% bovine serum albumin, 0.2% Tween 20 and 10 µg/ml heparin) and 900 microliter of conditioned medium from 293 cells that had been transfected with mammalian expression plasmids encoding full length or truncated PDGF-C or control vector, then metabolically labeled with ^35S-cysteine and methionine (Promix, Amersham) for 4 to 6 hours. […] Labeled proteins that were bound to the Ig-fusion proteins were analyzed by SDS-PAGE under reducing conditions. Radiolabeled proteins were detected using a phosphorimager analyzer.

In data set [1] the test system is ischemic gastrocnemius muscle. Kind of data set: Hind limb ischemia mouse model (femoral artery ligation). It counts as in vivo. The source says: To further verify the angio/arteriogenic activity of PDGF-CC in vivo, the effect of PDGF-CC in an established mouse model of hind limb ischemia is investigated (Luttun et al., Nat Med, 2002 1:1). PDGFR-α expression was quantified by RNAse protection analysis in the gastrocnemius muscle, which becomes highly ischemic after ligation of the femoral artery (Deindl et al., Circ Res, 2001 89:779-86; Couffinhal et al., American Journal of Pathology, 1998 152:1667-1679). Two days after femoral artery ligation, when a fraction of myocytes died due to ischemic necrosis, PDGFR-α transcript levels decreased to 76% of those found in normal muscles (FIG. 37a). […] Revascularization of the ischemic gastrocnemius muscle, which only occurred in those regions where regenerating muscle replaced the necrotic avascular muscle, was scored after continuous delivery, by osmotic minipump, of 4.5 μg PDGF-CC per day for one week after femoral artery ligation. […] PDGF-CC also enlarged the second-generation collateral side branches in the adductor muscle ([…] after saline versus […] after PDGF-CC; N=10; P=0.05). […] Thus, PDGF-CC stimulates revascularization in mouse models of both heart and limb ischemia.

The subject of data set [2] is human bone marrow-derived AC133+CD34+ cells. Kind of data set: Human bone marrow cell adherence and differentiation assay. The class given is cell-based. Conditions: 50 ng/ml. Here is the method:
Enriched human BM derived AC133+CD34+ cells (Clonetics) at 10^5/ml were cultured for 3 days in HPGM (Clonetics) in a 6-well plate (Becton Dickinson). Cells were then seeded in collagen coated 12-well plates in EBM (Clonetics) medium containing 4% FCS and VEGF165 (R&D Systems) or PDGF-CC (50 ng/ml each). Growth factors were added every two days and media were refreshed at 75% every four days. For adherence assay, 2.5×10^4 of non-adherent cells/ml were cultured in the same condition on chamber slides coated with collagen, or in 96-well plate coated with 0.3% gelatin in PBS. Cells were then washed three times with PBS, fixed and stained with May-Grünwald Giemsa (Sigma) after two weeks of culture on chamber slides (Becton Dickinson). The number of viable cells was estimated by ATP quantification using cellTiter-glo luminescent cell viability assay (Promega) according to the manufacturer's instructions. For cell surface marker staining, cells (2×10^4/well) cultured on collagen-coated culture slides for two or four weeks were fixed (45 min, 25° C.) and permeabilized (45 min, 25° C.) using a Intrastain Kit (DAKO), and then labeled with CD31-FITC (Becton Dickinson), CD144-FITC (Pharmingen), CD34-FITC (Becton Dickinson) or SMC-Actin CY3 (Sigma). Single or double-labeled cells were analyzed using laser confocal immunofluorescence microscopy.
Upon stimulation by growth factors or cytokines, bone marrow stem/progenitor cells can differentiate into ECs and SMCs and thereby contribute to angio/arteriogenesis (Orlic et al., Nature, 2001 410:701-5; Kawamoto et al., Circulation, 2001 103:634-7; Asahara et al., Circ Res, 1999 85:221-8). The potential role of PDGF-CC in the differentiation of bone marrow progenitors into vascular cells has, however, not been investigated thus far. We therefore cultured human bone marrow-derived AC133^+CD34^+ cells—a population enriched for stem/progenitor cells (Miraglia et al., Blood, 1997 90:5013-21; Yu et al., J Biol Chem, 2002 277:20711-6; Donnelly et al., Leuk Lymphoma, 2001 40:221-34)—and stimulated them with PDGF-CC, using VEGF as a control (50 ng/ml each).

[3] abbreviates: 4.5 μg per day for one week after femoral artery ligation.

T1 sequence (P35968 20-764 limits assumed): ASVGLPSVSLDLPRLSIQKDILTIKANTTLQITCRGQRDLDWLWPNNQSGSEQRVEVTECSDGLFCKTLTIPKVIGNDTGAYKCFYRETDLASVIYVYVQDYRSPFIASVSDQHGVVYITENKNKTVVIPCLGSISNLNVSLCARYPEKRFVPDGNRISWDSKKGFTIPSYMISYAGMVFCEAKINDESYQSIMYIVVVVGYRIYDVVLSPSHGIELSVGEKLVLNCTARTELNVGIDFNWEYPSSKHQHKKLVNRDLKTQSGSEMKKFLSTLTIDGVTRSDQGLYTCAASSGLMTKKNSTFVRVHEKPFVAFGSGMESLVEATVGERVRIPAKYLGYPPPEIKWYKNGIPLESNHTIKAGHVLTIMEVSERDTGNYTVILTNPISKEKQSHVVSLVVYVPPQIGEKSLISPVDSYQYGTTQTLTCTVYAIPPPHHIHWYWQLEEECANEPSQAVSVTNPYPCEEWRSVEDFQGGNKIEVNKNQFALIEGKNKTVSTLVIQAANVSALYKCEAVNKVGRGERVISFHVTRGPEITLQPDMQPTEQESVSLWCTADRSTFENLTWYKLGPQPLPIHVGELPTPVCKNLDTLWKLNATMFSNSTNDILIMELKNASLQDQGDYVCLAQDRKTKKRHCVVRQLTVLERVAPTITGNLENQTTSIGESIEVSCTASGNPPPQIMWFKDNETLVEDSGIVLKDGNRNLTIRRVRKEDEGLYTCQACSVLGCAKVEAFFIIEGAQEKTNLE

B1: PDGF-CC: recombinant human PDGF-CC core domain homodimer, residues 230-345 of full-length PDGF-C (SEQ ID NO:40), produced in baculovirus infected insect cells (protein)
chain: GRKSRVVDLNLLTEEVRLYSCTPRNFSVSIREELKRTDTIFWPGCLLVKRCGGNCACCLHNCNECQCVPSKVTKKYHEVLQLRPKTGVRGLHKSLTDVALEHHEECDCVCRGSTGG
modifications: homodimer; PDGF-C core domain
B1: in the data set with human VEGFR-2, the “interaction with VEGFR-2-Ig” value was “failed to show any interaction”. For the same molecule, the “hemorrhage, edema or fibrosis in treated limbs” value in data set [1] (4.5 μg per day for one week) is listed as “No signs of hemorrhage, edema or fibrosis”. Besides, in data set [1] (setting [3]), the “angiogenesis (capillary density)” value is given as “increased”, the “arteriogenesis (density of SMA+ vessels)” value was “enhanced”, the “extent of ischemic muscle necrosis” value is recorded as “reduced” and the skeletal muscle regeneration result was “enhanced”. The “second-generation collateral side branches in the adductor muscle” value in data set [1] (after femoral artery ligation, N=10) is 920±100 μm^3. Moreover, in data set [2] (four weeks), the SMA positive cells was more than 95%; the “expression of CD144 and CD31” value is reported as “lost their expression”. Moreover, in data set [2] (two weeks of stimulation), the “adherence of AC133+CD34+ cells” value is on record as “enhanced”; the “expression of EC surface markers CD144 (VE-cadherin) and CD31 (PECAM)” value is recorded as “induced”; the “expression of smooth muscle cell marker SMA” value is on record as “induced”.
